From patent US20040248207A1 (UNIVERSITY COLLEGE LONDON, published 2004)

T1: GFP/p11-1 fusion protein (rat)
T1 construct: Used as COS-7 cell lysate; not shown: GFP reporter at the N end and its junction; vector-encoded C-terminal tail after the XbaI site (reverse primer p11-1-3' has no stop codon)
T1 chain: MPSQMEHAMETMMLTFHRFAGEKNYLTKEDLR

T2: GFP/p11-1A fusion protein (rat, UniProt P05943 1-51)
T2 construct: Used as COS-7 cell lysate; not shown: GFP reporter at the N end and its junction; vector-encoded C-terminal tail after the XbaI site (reverse primer p11-2-1R has no stop codon)
T2 sequence: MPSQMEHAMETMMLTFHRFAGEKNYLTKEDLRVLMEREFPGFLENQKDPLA

B1: GFP-p11 fusion protein (other, not shown: large carriers; small tags and cut ends)
chain: MPSQMEHAMETMMLTFHRFAGEKNYLTKEDLRVLMEREFPGFLENQKDPLAVDKIMKDLDQCRDGKVGFQSFLSLVAGLIIACNDYFVVHMKQKK
notes: Expressed from pBS-GFP/p11 in COS-7 cells and used as cell extract
B2: GST/Nav1.8 N-terminus fusion protein, designated GST-SNS(I) (other)
chain: MELPFASVGTTNFRRFTPESLAEIEKQIAAHRAAKKARTKHRGQEDKGEKPRPQLDLKDCNQLPKFYGELPAELVGEPLEDLDPFYSTHRTFMVLNKSRTISRFSATWALWLFSPFNLIRRTAIKVS
notes: also called GST/SNS(I) fusion protein; not shown: glutathione-S-transferase (GST) as encoded by vector pGEX-5X-1 (Amersham Pharmacia Biotech); species and limits not stat; vector-encoded residues between GST and the EcoRI site of pGEX-5X-1

Tests used:
Assay in all cases: GST pull-down on glutathione-sepharose beads, anti-GFP immunoblot
GST control protein = biological target: T3, GST control protein (UniProt P08515 1-218 = GST)
T3 construct: Negative control on glutathione-sepharose beads; also called purified GST
T3 sequence (P08515 whole entry): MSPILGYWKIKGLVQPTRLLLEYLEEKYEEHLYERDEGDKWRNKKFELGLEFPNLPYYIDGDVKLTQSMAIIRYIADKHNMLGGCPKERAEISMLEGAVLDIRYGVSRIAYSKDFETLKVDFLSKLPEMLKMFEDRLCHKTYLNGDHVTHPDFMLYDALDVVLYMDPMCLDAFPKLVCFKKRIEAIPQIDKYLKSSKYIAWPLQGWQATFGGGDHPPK
Description: (§1) To examine the binding of p11 to the N-terminus of Naᵥ1.8 in vitro, glutathione-sepharose beads pre-incubated with purified GST, serving as control, or GST-SNS(I) were incubated at 4° C. overnight with GFP-p11 fusion protein or GFP protein extracted from transfected COS cells in PBS. After intensive washing with ice-cold PBS, the bound proteins were denatured in sample buffer (100 mM Tris-HCl pH 6.8, 4% SDS, 0.2% Bromophenol Blue, 20% Glycerol. 200 mM DDT), separated by 10% SDS-PAGE, and transferred to nitrocellulose membrane (Hybond ECL; Amersham Pharmacia Biotech). The membrane was blocked for 1 h in 5% nonfat dry mirnl in PBS-T at room temperature (0.1% Tween-20 in PBS, pH7.4). Primary anti-GFP antibody (Santa Cruz Biotechnology) in 1:800 dilution was applied for 1 hr at room temperature. Secondary antibody (horseradish peroxidase-conjugated sheep anti-mouse IgG, Amersham Pharmacia Biotech) in 1:2000 dilution was applied for 1 hr at room temperature. ECL Western Blotting Detection Reagents (Amersham Pharmacia Biotech) was applied according to the manufacturer's instructions and the blot was exposed to BioMax film (Kodak).
(§2) GFP/p11-1, -2, -3 fusion protein were expressed in COS-7 cells by transient transfection. The COS cell lysates were incubated with affinity-purified GST-SNS(I), the N-terminal domain of Naᵥ1.8 fused to GST, immobilized on glutathione-sepharose beads and were examined by immunoblotting with anti-GFP antibodies.
as §2, with “GFP/p11-1A, p11-2, p11-2-1, and p11-2-2” for “GFP/p11-1, -2, -3”, “proteins” for “protein”, “antibodies. […] These protein fragments correspond to amino acids 1-51, 33-51, 52-77 respectively. GST-SNS(I) efficiently pulled down cell lysate p11-2.” for “antibodies.”

GFP/p11-1 fusion protein = biological target: T1, GFP/p11-1 fusion protein
Description: as §1, §2
as §2, with “GFP/p11-1A, p11-2, p11-2-1, and p11-2-2” for “GFP/p11-1, -2, -3”, “proteins” for “protein”, “antibodies. […] These protein fragments correspond to amino acids 1-51, 33-51, 52-77 respectively. GST-SNS(I) efficiently pulled down cell lysate p11-2.” for “antibodies.”

[1] = biological target: T2, GFP/p11-1A fusion protein
Description: as §1, §2
as §2, with “GFP/p11-1A, p11-2, p11-2-1, and p11-2-2” for “GFP/p11-1, -2, -3”, “proteins” for “protein”, “antibodies. […] These protein fragments correspond to amino acids 1-51, 33-51, 52-77 respectively. GST-SNS(I) efficiently pulled down cell lysate p11-2.” for “antibodies.”

Binder	binding result (GST control protein)	binding result (GFP/p11-1 fusion protein)	binding result [1]
B1	no binding	–	–
B2	–	no binding	no binding
